Measured values: article PMC3711439, “Mechanisms of in vivo binding site selection of the hematopoietic master transcription factor PU.1”

B1: PU.1 motif oligo 22 (dsDNA)
DNA 1: ACGTGACTTCCTCATCACGT
DNA 2: ACGTGATGAGGAAGTCACGT
B2: PU.1 motif oligo 56 (dsDNA)
DNA 1: ACGTCGTTTCCTCTTTACGT
DNA 2: ACGTAAAGAGGAAACGACGT
B3: PU.1 motif oligo 58 (dsDNA)
DNA 1: ACGTCACTTCCCCAGGACGT
DNA 2: ACGTCCTGGGGAAGTGACGT
B4: PU.1 motif oligo 31 (dsDNA)
DNA 1: ACGTCAGTTCCTCAAAACGT
DNA 2: ACGTTTTGAGGAACTGACGT
B5: PU.1 motif oligo 47 (dsDNA)
DNA 1: ACGTCGCTTCCTCCTCACGT
DNA 2: ACGTGAGGAGGAAGCGACGT
B6: PU.1 motif oligo 46 (dsDNA)
DNA 1: ACGTCACTTCCTCCAGACGT
DNA 2: ACGTCTGGAGGAAGTGACGT
B7: PU.1 motif oligo 35 (dsDNA)
DNA 1: ACGTTGCTTCCTCTTTACGT
DNA 2: ACGTAAAGAGGAAGCAACGT
B8: PU.1 motif oligo 7 (dsDNA)
DNA 1: ACGTCAGTTCCTCTTTACGT
DNA 2: ACGTAAAGAGGAACTGACGT
B9: PU.1 motif oligo 13 (dsDNA)
DNA 1: ACGTCACTTCCTCTACACGT
DNA 2: ACGTGTAGAGGAAGTGACGT
B10: PU.1 motif oligo 49 (dsDNA)
DNA 1: ACGTCAGTTCCTCCTGACGT
DNA 2: ACGTCAGGAGGAACTGACGT
B11: PU.1 motif oligo 45 (dsDNA)
DNA 1: ACGTCATTTCCTCCTTACGT
DNA 2: ACGTAAGGAGGAAATGACGT
B12: PU.1 motif oligo 53 (dsDNA)
DNA 1: ACGTCACTTCCATTCTACGT
DNA 2: ACGTAGAATGGAAGTGACGT
B13: PU.1 motif oligo 1 (dsDNA)
DNA 1: ACGTCACTTCCTCTTTACGT
DNA 2: ACGTAAAGAGGAAGTGACGT
B14: PU.1 motif oligo 41 (dsDNA)
DNA 1: ACGTCACTTCCTAAATACGT
DNA 2: ACGTATTTAGGAAGTGACGT
B15: PU.1 motif oligo 25 (dsDNA)
DNA 1: ACGTCACTTCCGCTTCACGT
DNA 2: ACGTGAAGCGGAAGTGACGT
B16: PU.1 motif oligo 51 (dsDNA)
DNA 1: ACGTCACTTCCTTGTCACGT
DNA 2: ACGTGACAAGGAAGTGACGT
B17: PU.1 motif oligo 3 (dsDNA)
DNA 1: ACGTCACTTCCCCTTTACGT
DNA 2: ACGTAAAGGGGAAGTGACGT
B18: PU.1 motif oligo 5 (dsDNA)
DNA 1: ACGTCACTTCCTCTCTACGT
DNA 2: ACGTAGAGAGGAAGTGACGT
B19: PU.1 motif oligo 55 (dsDNA)
DNA 1: ACGTCACTTCCCTCCCACGT
DNA 2: ACGTGGGAGGGAAGTGACGT
B20: PU.1 motif oligo 32 (dsDNA)
DNA 1: ACGTAACTTCCTCCTAACGT
DNA 2: ACGTTAGGAGGAAGTTACGT
B21: PU.1 motif oligo 19 (dsDNA)
DNA 1: ACGTCAGTTCCTCTTCACGT
DNA 2: ACGTGAAGAGGAACTGACGT
B22: PU.1 motif oligo 15 (dsDNA)
DNA 1: ACGTGACTTCCTCTCTACGT
DNA 2: ACGTAGAGAGGAAGTCACGT
B23: PU.1 motif oligo 23 (dsDNA)
DNA 1: ACGTCACTTCCCCAAAACGT
DNA 2: ACGTTTTGGGGAAGTGACGT
B24: PU.1 motif oligo 18 (dsDNA)
DNA 1: ACGTCACTTCCTCAACACGT
DNA 2: ACGTGTTGAGGAAGTGACGT
B25: PU.1 motif oligo 16 (dsDNA)
DNA 1: ACGTAACTTCCTCATAACGT
DNA 2: ACGTTATGAGGAAGTTACGT
B26: PU.1 motif oligo 48 (dsDNA)
DNA 1: ACGTCACTTCTGCTTTACGT
DNA 2: ACGTAAAGCAGAAGTGACGT
B27: PU.1 motif oligo 17 (dsDNA)
DNA 1: ACGTCACTTCCTCCCTACGT
DNA 2: ACGTAGGGAGGAAGTGACGT
B28: PU.1 motif oligo 40 (dsDNA)
DNA 1: ACGTCAGTTCCTTAAAACGT
DNA 2: ACGTTTTAAGGAACTGACGT
B29: PU.1 motif oligo 24 (dsDNA)
DNA 1: ACGTAACTTCCTCAATACGT
DNA 2: ACGTATTGAGGAAGTTACGT
B30: PU.1 motif oligo 36 (dsDNA)
DNA 1: ACGTCCCTTCCTCTTTACGT
DNA 2: ACGTAAAGAGGAAGGGACGT
B31: PU.1 motif oligo 14 (dsDNA)
DNA 1: ACGTCACTTCCTCTGTACGT
DNA 2: ACGTACAGAGGAAGTGACGT
B32: PU.1 motif oligo 26 (dsDNA)
DNA 1: ACGTAAGTTCCTCATTACGT
DNA 2: ACGTAATGAGGAACTTACGT
B33: PU.1 motif oligo 50 (dsDNA)
DNA 1: ACGTCTCTTCCCCTCTACGT
DNA 2: ACGTAGAGGGGAAGAGACGT
B34: PU.1 motif oligo 59 (dsDNA)
DNA 1: ACGTAACTTCTTCCTTACGT
DNA 2: ACGTAAGGAAGAAGTTACGT
B35: PU.1 motif oligo 57 (dsDNA)
DNA 1: ACGTGAGTTCCTTTAAACGT
DNA 2: ACGTTTAAAGGAACTCACGT
B36: PU.1 motif oligo 6 (dsDNA)
DNA 1: ACGTGACTTCCTCTTTACGT
DNA 2: ACGTAAAGAGGAAGTCACGT
B37: PU.1 motif oligo 43 (dsDNA)
DNA 1: ACGTCACTTCCTCTGGACGT
DNA 2: ACGTCCAGAGGAAGTGACGT
B38: PU.1 motif oligo 30 (dsDNA)
DNA 1: ACGTCAGTTCCTGTTTACGT
DNA 2: ACGTAAACAGGAACTGACGT
B39: PU.1 motif oligo 52 (dsDNA)
DNA 1: ACGTGCCTTCCTCTTTACGT
DNA 2: ACGTAAAGAGGAAGGCACGT
B40: PU.1 motif oligo 21 (dsDNA)
DNA 1: ACGTGAGTTCCTCTTTACGT
DNA 2: ACGTAAAGAGGAACTCACGT
B41: PU.1 motif oligo 60 (dsDNA)
DNA 1: ACGTCGCTTCCTTCCTACGT
DNA 2: ACGTAGGAAGGAAGCGACGT
B42: PU.1 motif oligo 11 (dsDNA)
DNA 1: ACGTCACTTCCTCAAAACGT
DNA 2: ACGTTTTGAGGAAGTGACGT
B43: PU.1 motif oligo 42 (dsDNA)
DNA 1: ACGTCACTTCCGCCTCACGT
DNA 2: ACGTGAGGCGGAAGTGACGT
B44: PU.1 motif oligo 20 (dsDNA)
DNA 1: ACGTAACTTCCCCATTACGT
DNA 2: ACGTAATGGGGAAGTTACGT
B45: PU.1 motif oligo 4 (dsDNA)
DNA 1: ACGTCACTTCCTCTATACGT
DNA 2: ACGTATAGAGGAAGTGACGT
B46: PU.1 motif oligo 12 (dsDNA)
DNA 1: ACGTCACTTCCTTTCTACGT
DNA 2: ACGTAGAAAGGAAGTGACGT
B47: PU.1 motif oligo 38 (dsDNA)
DNA 1: ACGTCGCTTCCCCTTCACGT
DNA 2: ACGTGAAGGGGAAGCGACGT
B48: PU.1 motif oligo 34 (dsDNA)
DNA 1: ACGTCACTTCCTCCCCACGT
DNA 2: ACGTGGGGAGGAAGTGACGT
B49: PU.1 motif oligo 2 (dsDNA)
DNA 1: ACGTCACTTCCTCATTACGT
DNA 2: ACGTAATGAGGAAGTGACGT
B50: PU.1 motif oligo 27 (dsDNA)
DNA 1: ACGTCTCTTCCTCTTTACGT
DNA 2: ACGTAAAGAGGAAGAGACGT
B51: PU.1 motif oligo 28 (dsDNA)
DNA 1: ACGTTACTTCCTTTTAACGT
DNA 2: ACGTTAAAAGGAAGTAACGT
B52: PU.1 motif oligo 54 (dsDNA)
DNA 1: ACGTCTCTTCCTTTCTACGT
DNA 2: ACGTAGAAAGGAAGAGACGT
B53: PU.1 motif oligo 33 (dsDNA)
DNA 1: ACGTAACTTCCCCAATACGT
DNA 2: ACGTATTGGGGAAGTTACGT
B54: PU.1 motif oligo 29 (dsDNA)
DNA 1: ACGTGACTTCCTGTTTACGT
DNA 2: ACGTAAACAGGAAGTCACGT
B55: PU.1 motif oligo 37 (dsDNA)
DNA 1: ACGTCACTTCCTGCTAACGT
DNA 2: ACGTTAGCAGGAAGTGACGT
B56: PU.1 motif oligo 39 (dsDNA)
DNA 1: ACGTCGCTTCCTCTCCACGT
DNA 2: ACGTGGAGAGGAAGCGACGT
B57: PU.1 motif oligo 44 (dsDNA)
DNA 1: ACGTCACTTCTCTTTTACGT
DNA 2: ACGTAAAAGAGAAGTGACGT

biological target: PU.1 (human, UniProt P17947 1-270); experiment: MST; MST: 20 mM Tris-HCl pH 7.6, 1.5 mM MgCl2, 0.5 mM EGTA, 10% glycerol, 300 mM KCl, 10 mM DTT, 25 C; 50 nM Cy3-dsDNA, PU.1 1:1 dilutions from 23 uM; details: protein: recombinant; tags: N-terminal His-tag; label: Cy3 on upper strand

Question: How did the Kd turn out when B1 was run?
Answer: 532 ± 11 nM

Question: Which Kd does the source give for B2 here?
Answer: 670 ± 145 nM

Question: How did the Kd turn out when B3 was run?
Answer: 1070 ± 229 nM

Question: For B4, which Kd is on record?
Answer: 599 ± 142 nM

Question: Which Kd does the source give for B5 here?
Answer: 757 ± 186 nM

Question: With B6 as the binder, how does the Kd read?
Answer: 634 ± 12 nM

Question: With B7 as the binder, how does the Kd read?
Answer: 414 ± 92 nM

Question: With B8 as the binder, how does the Kd read?
Answer: 222 ± 45 nM

Question: With B9 as the binder, how does the Kd read?
Answer: 568 ± 283 nM

Question: With B10 as the binder, how does the Kd read?
Answer: 929 ± 222 nM

Question: For B11, which Kd is on record?
Answer: 828 ± 8 nM

Question: With B12 as the binder, how does the Kd read?
Answer: 4600 ± 2570 nM

Question: Which Kd does the source give for B13 here?
Answer: 164 ± 17 nM

Question: With B14 as the binder, how does the Kd read?
Answer: 620 ± 147 nM

Question: With B15 as the binder, how does the Kd read?
Answer: 613 ± 70 nM

Question: How did the Kd turn out when B16 was run?
Answer: 786 ± 41 nM

Question: With B17 as the binder, how does the Kd read?
Answer: 454 ± 61 nM

Question: Which Kd does the source give for B18 here?
Answer: 270 ± 23 nM

Question: With B19 as the binder, how does the Kd read?
Answer: 1010 ± 192 nM

Question: How did the Kd turn out when B20 was run?
Answer: 464 ± 77 nM

Question: How did the Kd turn out when B21 was run?
Answer: 596 ± 7 nM

Question: B22 was tested. Which Kd did it give?
Answer: 324 ± 45 nM

Question: With B23 as the binder, how does the Kd read?
Answer: 362 ± 103 nM

Question: How did the Kd turn out when B24 was run?
Answer: 452 ± 107 nM

Question: How did the Kd turn out when B25 was run?
Answer: 444 ± 55 nM

Question: How did the Kd turn out when B26 was run?
Answer: 600 ± 7 nM

Question: For B27, which Kd is on record?
Answer: 470 ± 26 nM

Question: For B28, which Kd is on record?
Answer: 808 ± 97 nM

Question: With B29 as the binder, how does the Kd read?
Answer: 462 ± 77 nM

Question: How did the Kd turn out when B30 was run?
Answer: 682 ± 71 nM

Question: How did the Kd turn out when B31 was run?
Answer: 658 ± 267 nM

Question: How did the Kd turn out when B32 was run?
Answer: 490 ± 141 nM

Question: For B33, which Kd is on record?
Answer: 2120 ± 890 nM

Question: How did the Kd turn out when B34 was run?
Answer: 1620 ± 20 nM

Question: Which Kd does the source give for B35 here?
Answer: 1660 ± 170 nM

Question: How did the Kd turn out when B36 was run?
Answer: 190 ± 31 nM

Question: Which Kd does the source give for B37 here?
Answer: 822 ± 289 nM

Question: For B38, which Kd is on record?
Answer: 558 ± 77 nM

Question: How did the Kd turn out when B39 was run?
Answer: 887 ± 104 nM

Question: For B40, which Kd is on record?
Answer: 298 ± 15 nM

Question: Which Kd does the source give for B41 here?
Answer: 1895 ± 10 nM

Question: B42 was tested. Which Kd did it give?
Answer: 242 ± 5 nM

Question: B43 was tested. Which Kd did it give?
Answer: 656 ± 191 nM

Question: Which Kd does the source give for B44 here?
Answer: 234 ± 21 nM

Question: For B45, which Kd is on record?
Answer: 413 ± 84 nM

Question: Which Kd does the source give for B46 here?
Answer: 588 ± 95 nM

Question: For B47, which Kd is on record?
Answer: 893 ± 116 nM

Question: How did the Kd turn out when B48 was run?
Answer: 690 ± 134 nM

Question: Which Kd does the source give for B49 here?
Answer: 272 ± 36 nM

Question: For B50, which Kd is on record?
Answer: 719 ± 116 nM

Question: B51 was tested. Which Kd did it give?
Answer: 422 ± 29 nM

Question: For B52, which Kd is on record?
Answer: 1700 ± 440 nM

Question: How did the Kd turn out when B53 was run?
Answer: 611 ± 58 nM

Question: With B54 as the binder, how does the Kd read?
Answer: 361 ± 54 nM

Question: Which Kd does the source give for B55 here?
Answer: 794 ± 112 nM

Question: Which Kd does the source give for B56 here?
Answer: 983 ± 94 nM

Question: For B57, which Kd is on record?
Answer: 770 ± 174 nM
